Assay results as given in paper PMC10899662, “TopBP1 utilises a bipartite GINS binding mode to support genome replication” (Nature Communications, 2024).

System: DNA replication in Xenopus egg extracts
Assay: Replication assay in TopBP1-immunodepleted Xenopus egg extract (α-32P-dCTP incorporation)
Assay type: biochemical, Xenopus laevis
Conditions: for ability to support replication (words): 6 ng/µl recombinant TopBP1 added to TopBP1-immunodepleted extract, 23 °C
Experimental: Fig. 5 Both GINS binding surfaces in TopBP1 cooperate in supporting genome replication. a Immobilized recombinant Flag-GINS or Flag peptide-coupled beads were used to pulldown the indicated recombinant TopBP1-BRCT0-5-strep versions (Figs. 1a and 3a) using 100 mM NaAc in the binding buffer. The pulldown was analysed by immunoblotting. […] Estimations were done for the binding interfaces involving TopBP1-GINI (blue) and TopBP1-BRCT4 (red), both together and alone. c Coomassie-stained SDS PAGE gel of the indicated recombinant TopBP1-BRCT0-5 proteins (Figs. 1a(ii) and 3a). d The indicated relative amounts (100%–10%) of immunodepleted and non-depleted Xenopus egg extracts (Xtract) were analysed by immunoblotting using anti-TopBP1 #2 and other indicated antibodies. TopBP1 antibodies #1 and #2, or unspecific IgG (mock) were used for immunodepletions. Ponc, ponceau staining. Error bars, SEM, n = 3. The experiments were done more than three times (i) or twice (ii) with similar results. e, f Replication analyses (radioactive nucleotide incorporation) using Xenopus egg extracts immunodepleted with antibodies anti-TopBP1#1, #2 or unspecific IgG (mock). Buffer (buf), recombinant wild-type (WT) or mutant TopBP1-BRCT0-5-strep (c) were added. Diamonds, Individual data points of n = 3 independent experiments, Error bars, SEM. Source data are provided as a Source data file.
Xenopus laevis egg extracts were prepared from metaphase II arrested eggs as described in ref. [79]. After washing with MMR (100 mM NaCl, 2 mM KCl, 1 mM MgCl2, 2 mM CaCl2, 0.1 mM EDTA, 5 mM HEPES–NaOH, pH 7.8) eggs were dejellied (2% cysteine w:v in H2O, pH 7.8 with NaOH). Eggs were rinsed in XBE2 (100 mM KCl, 2 mM MgCl2, 0.1 mM CaCl2, 1.71% w:v sucrose, 5 mM K-EGTA, 10 mM HEPES–KOH, pH 7.7). Then, the eggs were transferred into centrifuge tubes containing 1 ml XBE2 + 10 µg/ml protease inhibitor (aprotinin Sigma A6279, leupeptin Merck 108975, pepstatin Carl Roth 2936.1) + 100 µg/ml cytochalasin D (Sigma C8273). For packing, eggs were centrifuged for 1 min at 1400 × g at 16 °C in a swingout rotor. Excess buffer, activated and apoptotic eggs were removed before crushing the eggs at 16,000 × g for 10 min at 16 °C. The extract was collected with a 20 G needle and supplemented with 10 µg/ml cytochalasin D, 10 µg/ml protease inhibitors, 1:80 dilution of energy regenerator (1M phosphocreatine K salt, 600 µg/ml creatine phosphokinase in 10 mM HEPES–KOH pH 7.6) and LFB1/50 (10% w-v sucrose, 50 mM KCl, 2 mM MgCl2, 1 mM EGTA, 2 mM DTT, 20 mM K2HPO4/KH2PO4 pH 8.0, 40 mM HEPES–KOH, pH 8.0) to 15% (v:v). The extract was cleared at 84,000 × g at 4 °C for 20 min in a swingout rotor. The cytoplasmatic layer was collected and supplemented with 2% glycerol v:v. […]

B1: TopBP1-BRCT0-5-WT: recombinant TopBP1 amino acids 1–766, strep-tagged (protein)
chain: MSRNDKEPFFVKFLKSSDNSKCFFKALESIKEFQSEEYLQIITEEEALKIKENDRSLYICDPFSGVVFDHLKKLGCRIVGPQVVIFCMHHQRCVPRAEHPVYNMVMSDVTISCTSLEKEKREEVHKYVQMMGGRVYRDLNVSVTHLIAGEVGSKKYLVAANLKKPILLPSWIKTLWEKSQEKKITRYTDINMEDFKCPIFLGCIICVTGLCGLDRKEVQQLTVKHGGQYMGQLKMNECTHLIVQEPKGQKYECAKRWNVHCVTTQWFFDSIEKGFCQDESIYKTEPRPEAKTMPNSSTPTSQINTIDSRTLSDVSNISNINASCVSESICNSLNSKLEPTLENLENLDVSAFQAPEDLLDGCRIYLCGFSGRKLDKLRRLINSGGGVRFNQLNEDVTHVIVGDYDDELKQFWNKSAHRPHVVGAKWLLECFSKGYMLSEEPYIHANYQPVEIPVSHKPESKAALLKKKNSSFSKKDFAPSEKHEQADEDLLSQYENGSSTVVEAKTSEARPFNDSTHAEPLNDSTHISLQEENQSSVSHCVPDVSTITEEGLFSQKSFLVLGFSNENESNIANIIKENAGKIMSLLSRTVADYAVVPLLGCEVEATVGEVVTNTWLVTCIDYQTLFDPKSNPLFTPVPVMTGMTPLEDCVISFSQCAGAEKESLTFLANLLGASVQEYFVRKSNAKKGMFASTHLILKERGGSKYEAAKKWNLPAVTIAWLLETARTGKRADESHFLIENSTKEERSLETEITNGINLNSDTAEHP
modifications: left off: Strep, C-terminal, kept
notes: recombinant TopBP1 amino acids 1–766, strep-tagged
With B1 the “ability to support replication (words)” value was “effectively rescued replication in depleted extracts”.

B2: TopBP1-Gpp: TopBP1-BRCT0-5, central leucine-leucine motif mutated to two consecutive prolines (protein)
chain: MSRNDKEPFFVKFLKSSDNSKCFFKALESIKEFQSEEYLQIITEEEALKIKENDRSLYICDPFSGVVFDHLKKLGCRIVGPQVVIFCMHHQRCVPRAEHPVYNMVMSDVTISCTSLEKEKREEVHKYVQMMGGRVYRDLNVSVTHLIAGEVGSKKYLVAANLKKPILLPSWIKTLWEKSQEKKITRYTDINMEDFKCPIFLGCIICVTGLCGLDRKEVQQLTVKHGGQYMGQLKMNECTHLIVQEPKGQKYECAKRWNVHCVTTQWFFDSIEKGFCQDESIYKTEPRPEAKTMPNSSTPTSQINTIDSRTLSDVSNISNINASCVSESICNSLNSKLEPTLENLENLDVSAFQAPEDLLDGCRIYLCGFSGRKLDKLRRLINSGGGVRFNQLNEDVTHVIVGDYDDELKQFWNKSAHRPHVVGAKWLLECFSKGYMLSEEPYIHANYQPVEIPVSHKPESKAALLKKKNSSFSKKDFAPSEKHEQADEDPPSQYENGSSTVVEAKTSEARPFNDSTHAEPLNDSTHISLQEENQSSVSHCVPDVSTITEEGLFSQKSFLVLGFSNENESNIANIIKENAGKIMSLLSRTVADYAVVPLLGCEVEATVGEVVTNTWLVTCIDYQTLFDPKSNPLFTPVPVMTGMTPLEDCVISFSQCAGAEKESLTFLANLLGASVQEYFVRKSNAKKGMFASTHLILKERGGSKYEAAKKWNLPAVTIAWLLETARTGKRADESHFLIENSTKEERSLETEITNGINLNSDTAEHP
modifications: left off: Strep, C-terminal, kept
notes: TopBP1-BRCT0-5, central leucine-leucine motif mutated to two consecutive prolines
In the case of B2, the “reduction in nucleotide incorporation” value (120 min time point, TopBP1-immunodepleted Xenopus egg extract, 6 ng/µl protein) is reported as 55%.

B3: TopBP1-B4mut: Val590, Thr606 and Val610 mutated to glutamate, arginine and glutamate (protein)
chain: MSRNDKEPFFVKFLKSSDNSKCFFKALESIKEFQSEEYLQIITEEEALKIKENDRSLYICDPFSGVVFDHLKKLGCRIVGPQVVIFCMHHQRCVPRAEHPVYNMVMSDVTISCTSLEKEKREEVHKYVQMMGGRVYRDLNVSVTHLIAGEVGSKKYLVAANLKKPILLPSWIKTLWEKSQEKKITRYTDINMEDFKCPIFLGCIICVTGLCGLDRKEVQQLTVKHGGQYMGQLKMNECTHLIVQEPKGQKYECAKRWNVHCVTTQWFFDSIEKGFCQDESIYKTEPRPEAKTMPNSSTPTSQINTIDSRTLSDVSNISNINASCVSESICNSLNSKLEPTLENLENLDVSAFQAPEDLLDGCRIYLCGFSGRKLDKLRRLINSGGGVRFNQLNEDVTHVIVGDYDDELKQFWNKSAHRPHVVGAKWLLECFSKGYMLSEEPYIHANYQPVEIPVSHKPESKAALLKKKNSSFSKKDFAPSEKHEQADEDLLSQYENGSSTVVEAKTSEARPFNDSTHAEPLNDSTHISLQEENQSSVSHCVPDVSTITEEGLFSQKSFLVLGFSNENESNIANIIKENAGKIMSLLSRTEADYAVVPLLGCEVEARVGEEVTNTWLVTCIDYQTLFDPKSNPLFTPVPVMTGMTPLEDCVISFSQCAGAEKESLTFLANLLGASVQEYFVRKSNAKKGMFASTHLILKERGGSKYEAAKKWNLPAVTIAWLLETARTGKRADESHFLIENSTKEERSLETEITNGINLNSDTAEHP
modifications: left off: Strep, C-terminal, kept
B3 was tested, and the “ability to support replication (words)” value was “not detectably compromised in their abilities to support replication” and the “ability to support replication (words)” value (listed as B4mut) was “do not aﬀect grossly the replica+on-inducing”.
